Four molecules from US11396544 (dated 2022) can be followed below.

Assay [1] deals with T1, human CD22 (cell surface) (human, UniProt P20273). Description: FACS, Nalm6.
For assay [2], the target named is T1, human CD22 (cell surface). Description: FACS, HEK293/hCD20/hCD22. Background: A flow cytometer gives signals particle by particle.
Assay [3] addresses T1, human CD22 (cell surface). Nature of the assay: FACS, Raji/CD80 and CD86 negative.
For another assay, the target named is hCD28.mmH (human). Nature of the assay: SPR, 25C. On the technique in general: SPR reads the build-up and loss of mass on a sensor chip optically.
The target in assay [4] is human CD28 (cell surface) (human, UniProt P10747). Nature of the assay: FACS, Jurkat.

B1: REGN5838 (CD22 arm) (antibody, V domains shown)
VH: EVQLVESGGGLVQPGGSLKLSCAASGFTFSGSDMHWVRQASGKGLEWVGRIRNQPNSYATAYAASVKGRFTISRDDSKNTAHLQMNSLKTEDTAVYFCTRQKQVVYNYHHYYGMDVWGQGTTVTVSS
VL: not shown
Regarding B1, the EC50 (commonly the concentration needed to bring the measured effect to its halfway point) in assay [1] was 18 nM; in assay [2], 11.4 nM; in assay [3] it was 14.9 nM.

B2: REGN5838 (CD28 arm) (antibody, V domains shown)
VH: QVQLQESGPGLVKPSETLSLTCTVSGGSISSYYWSWIRQPPGKGLEWIGYIYYSGITHYNPSLKSRVTISVDTSKIQFSLKLSSVTAADTAVYYCARWGVRRDYYYYGMDVWGQGTTVTVSS
VL: not shown
As for B2, in the assay with hCD28.mmH, the Kd (commonly the equilibrium constant for the complex coming apart) is 404 nM. Moreover, the EC50 in assay [4] was 23 nM.

B3: REGN5837 (CD28 arm) (antibody, V domains shown)
VH: QVQLQESGPGLVKPSETLSLTCTVSGGSISSYYWSWIRQPPGKGLEWIGYIYYSGITHYNPSLKSRVTISVDTSKIQFSLKLSSVTAADTAVYYCARWGVRRDYYYYGMDVWGQGTTVTVSS
VL: not shown
In assay [4], B3 came in with an EC50 of 21 nM.

B4: REGN5837 (CD22 arm) (antibody, V domains shown)
VH: EVQLVQSGAEVKKPGESLKISCKGSGYNFATYWIAWVRQMPGKGLELMGIIYPGDSETTYNPSFQGQVTISADKSISNAYLQWSSLKASDTAMYYCARVGGYCSGTSCHNWFDPWGLGTLVTVSS
VL: not shown
With B4, the EC50 amounted to 13 nM in assay [1] and 9.76 nM in assay [3].
